These results are taken from patent US12162918B2, “Periostin compounds for the treatment of haematological complications” (Chemotherapeutisches Forschungsinstitut Georg-Speyer-Haus, priority 2018, dated 2024).

“Also recorded” adds a separate entry of the source.

Series [1] deals with HSC. The series is described as follows: Competitive transplantation of bone marrow from periostin- or vitamin K-treated donor mice. It is filed as in vivo. The note with it: for percentage of LKS cells, cell cycle of transplanted LKS cells, number of colonies in methylcellulose: previously treated bone marrow cells compared to vehicle. The procedure:
(§1) 5-fluorouracil was intraperitoneally injected every week at a dose of 75 mg/kg for a total of 4 doses or as a one time dose of 200 mg/kg. Recombinant mouse periostin (R&D Systems, Minneapolis, MN, cat. no. 2955-F2), produced in the Sf21 (baculovirus)-derived insect cell line, was administered intravenously at a dose of 2-4 μg per day and vitamin K was given at a dose of 15 mg/kg by oral gavage for four consecutive days.
SJL (CD45.1) donor mice were treated with vehicle or warfarin, euthanized and long bones were flushed, followed by RBC lysis (Life Technologies, Darmstadt, Germany). For competitive transplantation 2×10^6 total BM cells from SJL mice were co-transplanted with 1×10^6 CD45.2+ BM competitor cells into lethally irradiated (900 cGy) C57BL/6N (CD45.2+) recipient mice. For serial transplantation 2×10^6 total CD45.1+ BM cells were transplanted into lethally irradiated C57BL/6N recipient mice. Cell engraftment and chimerism were assessed by flow cytometry of peripheral blood leukocytes for CD45.1 and CD45.2 after 4, 8, 12 and 16 weeks post transplantation. In the limiting dilution experiment we treated primary CD45.1+ donor mice with vehicle or warfarin for 14 days and, consequently, transplanted 5×10^5, 12.5×10^4, 6×10^4 and 1.5×10^4 pooled BM cells into 5 CD45.2+ recipients per group adding 5×10^5 CD45.2+ supporter cells. In indicated experiments we transplanted 5,000 or 10,000 sorted CD45.1+ LKS cells from mice treated with vehicle or warfarin plus 1×10^6 CD45.2+ total BM supporter cells into CD45.2+ recipient mice.

For series [2], the system named is wildtype mice. The experiment in a line: Complete blood count and flow cytometry of peripheral blood and bone marrow of treated mice. It is filed as in vivo. As to conditions: administration of vitamin K1, P=0.04. The procedure: (§2) 0.5 mg/kg/d or 0.05 mg/kg/d of warfarin, resuspended in phosphate-buffered saline was administered to mice via subcutaneously implanted osmotic minipumps (ALZET minipumps, Cupertino, CA). The osmotic minipumps were changed after 14 days (if the experiment went beyond 14 days of treatment). Sham operated (skin incision and suture) mice served as controls. Warfarin treatment continued for 10-14 days. In the xenotransplantation experiments the mice were treated with warfarin via the drinking water (or normal drinking water) at a dose of 0.72 mg/100 ml for a total of 3 days a week (Pfeilschifter et al., 2011).
as §1
We assessed the complete blood count of vehicle or warfarin-treated mice using a complete blood count analyzer (Scil Vet ABC, Gurnee, IL). Peripheral blood and bone marrow samples were stained with antibodies for flow cytometry, which was performed on a BD LSR Fortessa (BD Biosciences, Heidelberg, Germany). The lineage antibody cocktail contained antibodies to B220, CD5, Ter119, F4/80 and CD11b. Engraftment of human cells in NSG mice was assessed using anti-human CD45 (BD Biosciences, San José, CA).

For series [3], the target named is T1, integrin β3 (Mus musculus, UniProt O54890+P43406).
T1 construct: endogenous in cells; host or cells: murine Lin− bone marrow cells cocultured on murine BM stroma cells
The experiment in a line: Inhibition of integrin β3 by cilengitide, pAKT in Lin− cells cocultured on BM stroma. In kind it is cell-based, mice. As to conditions: cilengitide 0.05 μM, coculture on BM stroma cells, P=0.03. The procedure:
(§3) Concentrations of drugs for in vitro use were 2 μM for warfarin, 2 μg/ml for periostin, 5 μM for the AKT inhibitor MK-2206 (Selleck Chemicals, Houston, TX) and cilengitide (Selleck Chemicals, Houston, TX, Cat. No. #S7077) was used at 0.05 μM. Phosphate buffered saline served as the vehicle control.
The PE-labelled anti-pAKT antibody (Cell signaling, #5315, Danvers, MA) was used for intracellular flow cytometry after fixation and permeabilization of the cells.

In series [4] the test system is patients. The series is described as follows: Peripheral blood counts of patients on VKA versus control patients. In kind it is in vivo, human. An excerpt: For FIGS. 6C-6H: Data of patients on VKA were obtained from the French health care databases. Patients with hematological disease, inflammation or sepsis were excluded. Patients admitted to the hospital for dermatological problems without hematological disease or sepsis acted as controls.

The test system of series [5] is Lin− cells. The series is described as follows: Plating of warfarin-exposed Lin− cells on untreated versus warfarin-treated stroma, with or without MK-2206. The note with it: MK-2206 5 μM added to cocultures, P=0.02. It is filed as cell-based, mice.
In series [6] the test system is hematopoietic cells from murine bone marrow. The experiment in a line: In vitro rescue experiment with periostin in stroma/Lin− cocultures. It is filed as cell-based. As to conditions: for absolute number of hematopoietic cells in coculture: 2 μg/ml periostin added, warfarin-treated stroma, 5 days, P=0.02. The procedure: as §3
To test the direct effect of warfarin on hematopoietic cells 100,000 Lin− cells were cultured in 2 μM vehicle or warfarin in the absence of stroma cells for a total of 7 days. For the in vitro rescue experiment with periostin stroma cells were grown in warfarin for 14 days, before vehicle or periostin were added.

The test system of series [7] is Lin− cells. The series is described as follows: Adhesion assay of Lin− cells to stroma cells. It is filed as cell-based, mice. The note with it: periostin added, warfarin- and more prominently vehicle-treated conditions, P=0.03.
Description: In vivo administration of periostin to mice treated with warfarin also ‘rescued’ the number of LKS cells positive for integrin β3, whose binding to its ligand periostin (Gillan et al., 2002) is known to mediate HSC support (P=0.0013; FIG. 5A) (Khurana and Verfaillie, 2013). […] In order to test, whether the periostin/integrin β3-axis mediates the adhesion of HSPC to stroma, the inventors performed an adhesion assay plating untreated Lin− cells on vehicle- or warfarin-treated stroma cells in the presence or absence of periostin. […] Due to the role of pAKT, which lies downstream of integrin β3 (Hynes, 2002), in periostin-mediated cell survival (Bao et al., 2004) the inventors tested the effect of inhibition of integrin β3 by cilengitide on pAKT in Lin− cells after coculture on BM stroma cells. Similar to the reduction of pAKT+ Lin− cells in mice treated with warfarin (FIG. 3A), inhibition of integrin β3 led to a decrease of pAKT in Lin− cells (P=0.03).
as §3

The test system of series [8] is LKS cells and myeloid cells. The experiment in a line: In vivo administration of periostin to mice treated with warfarin. The procedure:
as §2, §1
For cell cycle analysis cells were permeabilized and fixed with the cytoperm/cytofix kit (BD Biosciences, San Jose, CA), followed by staining with an antibody to Ki67-PE (Biolegend, San Diego, CA) overnight at 4 C. Consequently, cells were washed and resuspended in PBS with DAPI (1 ng/ml). For detection of apoptosis cells were first stained for surface markers, washed with Annexin V buffer (Life Technologies, Darmstadt, Germany), stained with Annexin V-PE (Life Technologies, Darmstadt, Germany), washed with Annexin V binding buffer, resuspended in PBS with DAPI and analyzed.

T1 sequence (O54890 26-787): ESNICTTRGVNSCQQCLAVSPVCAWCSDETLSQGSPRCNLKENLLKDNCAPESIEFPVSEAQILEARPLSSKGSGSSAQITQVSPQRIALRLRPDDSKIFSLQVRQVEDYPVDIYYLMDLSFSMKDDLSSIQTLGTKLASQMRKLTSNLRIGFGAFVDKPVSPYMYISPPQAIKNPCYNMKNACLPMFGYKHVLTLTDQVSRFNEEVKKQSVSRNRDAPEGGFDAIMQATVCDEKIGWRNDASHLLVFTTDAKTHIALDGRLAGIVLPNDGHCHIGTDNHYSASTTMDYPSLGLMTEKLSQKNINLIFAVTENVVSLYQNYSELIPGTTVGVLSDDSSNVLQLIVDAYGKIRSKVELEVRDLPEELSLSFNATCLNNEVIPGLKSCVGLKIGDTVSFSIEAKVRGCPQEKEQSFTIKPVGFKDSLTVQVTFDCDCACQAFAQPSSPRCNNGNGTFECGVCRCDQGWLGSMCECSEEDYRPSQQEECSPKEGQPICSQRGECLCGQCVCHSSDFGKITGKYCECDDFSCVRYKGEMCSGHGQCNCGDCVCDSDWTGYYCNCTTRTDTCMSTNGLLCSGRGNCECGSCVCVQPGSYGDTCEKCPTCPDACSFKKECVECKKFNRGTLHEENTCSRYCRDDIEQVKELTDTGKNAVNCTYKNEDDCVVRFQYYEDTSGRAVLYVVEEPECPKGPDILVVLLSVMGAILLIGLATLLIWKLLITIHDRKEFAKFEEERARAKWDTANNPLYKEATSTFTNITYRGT
T1 sequence (P43406 31-885 limits assumed): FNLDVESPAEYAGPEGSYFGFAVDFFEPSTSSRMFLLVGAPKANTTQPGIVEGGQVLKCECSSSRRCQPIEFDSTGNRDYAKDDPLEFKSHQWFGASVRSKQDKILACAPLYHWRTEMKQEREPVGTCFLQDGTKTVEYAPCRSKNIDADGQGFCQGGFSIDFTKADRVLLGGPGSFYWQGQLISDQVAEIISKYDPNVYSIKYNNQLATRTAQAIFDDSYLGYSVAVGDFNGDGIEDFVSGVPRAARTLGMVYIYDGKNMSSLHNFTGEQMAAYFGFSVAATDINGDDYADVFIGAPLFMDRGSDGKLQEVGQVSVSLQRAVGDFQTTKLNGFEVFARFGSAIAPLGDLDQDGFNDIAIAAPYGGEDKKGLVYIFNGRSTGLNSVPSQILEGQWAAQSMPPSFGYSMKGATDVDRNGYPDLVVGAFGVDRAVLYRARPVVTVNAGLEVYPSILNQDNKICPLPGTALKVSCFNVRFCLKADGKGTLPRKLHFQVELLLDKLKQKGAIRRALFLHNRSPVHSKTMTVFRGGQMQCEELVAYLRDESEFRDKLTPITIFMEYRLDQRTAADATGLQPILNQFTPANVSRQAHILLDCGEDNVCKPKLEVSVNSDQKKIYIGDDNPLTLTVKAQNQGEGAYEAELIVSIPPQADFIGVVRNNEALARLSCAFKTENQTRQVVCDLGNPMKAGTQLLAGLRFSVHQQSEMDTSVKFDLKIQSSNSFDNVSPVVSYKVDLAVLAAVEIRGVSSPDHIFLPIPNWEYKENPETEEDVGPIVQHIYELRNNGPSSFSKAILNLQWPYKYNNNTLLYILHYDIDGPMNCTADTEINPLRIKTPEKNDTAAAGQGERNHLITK
T1 sequence (P43406 887-1044 partner limits assumed): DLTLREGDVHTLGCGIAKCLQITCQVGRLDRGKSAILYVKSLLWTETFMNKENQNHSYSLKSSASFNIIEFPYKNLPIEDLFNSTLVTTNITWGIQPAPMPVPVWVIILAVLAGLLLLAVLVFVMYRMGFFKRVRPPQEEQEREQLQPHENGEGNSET

Turning to `CC1=C(C/C=C(\C)CCC[C@H](C)CCC[C@H](C)CCCC(C)C)C(=O)c2ccccc2C1=O` [vitamin K1], the “percentage of LKS cells, cell cycle of transplanted LKS cells, number of colonies in methylcellulose” value in series [1] is recorded as “did not lead to an increase”. Moreover, in series [1] (treatment of donor mice with vitamin K prior to competitive transplantation), the “engraftment of donor cells” value is on record as “did not lead to increased engraftment”. Further, the “decreased percentage of myeloid cells in previously warfarin-treated mice” value in series [2] was “rescued”.
Take `CC(C)[C@H]1C(=O)N[C@@H](CCCN=C(N)N)C(=O)NCC(=O)N[C@@H](CC(=O)O)C(=O)N[C@H](Cc2ccccc2)C(=O)N1C` [cilengitide]: the “pAKT in Lin− cells” value in series [3] was “decrease”.
Take `O=C1c2ccccc2C(=O)C1c1ccc(F)cc1` [fluindione]: in series [4] (282 patients on warfarin (P=0.0007) or 89 on fluindione (P=0.029) vs 145 control patients), the “absolute number of leukocytes” value is “reduced”. In addition, the “absolute number of monocytes” value in series [4] (282 patients on warfarin (P=0.004) or 89 on fluindione (P=0.046) vs 145 control patients) is reported as “reduced”. In addition, in series [4] (warfarin- or fluindione-treated patients), the platelets entry is listed as “not reduced”.
In the case of `NC1(c2ccc(-c3nc4ccn5c(=O)[nH]nc5c4cc3-c3ccccc3)cc2)CCC1` [MK-2206], in series [5], the “temporary recovery of warfarin-exposed Lin− cells on untreated stroma” value is listed as “prevented”.

B1: periostin: Recombinant mouse periostin (R&D Systems, cat. no. 2955-F2), produced in the Sf21 (baculovirus)-derived insect cell line (protein)
chain: NSYYDKVLAHSRIRGRDQGPNVCALQQILGTKKKYFSSCKNWYQGAICGKKTTVLYECCPGYMRMEGMKGCPAVMPIDHVYGTLGIVGATTTQHYSDVSKLREEIEGKGSYTYFAPSNEAWENLDSDIRRGLENNVNVELLNALHSHMVNKRMLTKDLKHGMVIPSMYNNLGLFINHYPNGVVTVNCARVIHGNQIATNGVVHVIDRVLTQIGTSIQDFLEAEDDLSSFRAAAITSDLLESLGRDGHFTLFAPTNEAFEKLPRGVLERIMGDKVASEALMKYHILNTLQCSEAITGGAVFETMEGNTIEIGCEGDSISINGIKMVNKKDIVTKNGVIHLIDEVLIPDSAKQVIELAGKQQTTFTDLVAQLGLASSLKPDGEYTLLAPVNNAFSDDTLSMDQRLLKLILQNHILKVKVGLSDLYNGQILETIGGKQLRVFVYRTAICIENSCMVRGSKQGRNGAIHIFREIIQPAEKSLHDKLRQDKRFSIFLSLLEAADLKDLLTQPGDWTLFAPTNDAFKGMTSEERELLIGDKNALQNIILYHLTPGVYIGKGFEPGVTNILKTTQGSKIYLKGVNETLLVNELKSKESDIMTTNGVIHVVDKLLYPADIPVGNDQLLELLNKLIKYIQIKFVRGSTFKEIPMTVYRPAMTKIQIEGDPDFRLIKEGETVTEVIHGEPVIKKYTKIIDGVPVEITEKQTREERIITGPEIKYTRISTGGGETGETLQKFLQKEVSKVTKFIEGGDGHLFEDEEIKRLLQGDTPAKKIPANKRVQGPRRRSREGRSQ
For the molecule B1, the “engraftment of CD45.1+ bone marrow (ratio CD45.1/CD45.2)” value in series [1] (donor treated for four days, four weeks after transplantation, P=0.02) was “increased engraftment”. In addition, the “engraftment of CD45.1+ bone marrow” value in series [1] (later time points (data not shown)) is recorded as “not at later time points”. Moreover, the “percentage of LKS cells, cell cycle of transplanted LKS cells, number of colonies in methylcellulose” value in series [1] is “did not lead to an increase”. Moreover, the “absolute number of hematopoietic cells in coculture” value in series [6] is on record as “increase of the number of hematopoietic cells”; in series [6] (listed as recombinant periostin), “restored”. In addition, the “percentage of LKS cells in warfarin-treated cultures” value in series [6] (periostin added, P=0.056) is recorded as “strong trend towards restoration”. Also, the “adhesion of Lin− cells to stroma” value in series [7] is “restored or augmented”. Also, the “annexin V+ apoptotic LKS cells” value in series [8] (periostin and warfarin (or vehicle) vs warfarin (or vehicle) alone, P=0.02) is given as “significantly reduced”. The “median fluorescence intensity of integrin β3 on LKS cells” value in series [8] (periostin to warfarin-treated mice) was “remained unchanged”. In series [8] (periostin to warfarin-treated mice, 4 day treatment, P=0.007), the “percentage of myeloid cells in peripheral blood” value is “rescued; also recorded: increase of the percentage of myeloid cells”. For the same molecule, in series [8] (periostin to warfarin-treated mice, P=0.0013), the “number of LKS cells positive for integrin β3” value is reported as “rescued”.
